We go through one molecule from patent US20110165078A1 (UNIVERSITY COURT OF THE UNIVERSITY OF ABERDEEN, published 2011).

The target of test [1] is T1, rat synaptophysin (in rat hepatic stellate cells) (rat, UniProt P07825 1-307).
T1 construct: In rat HSC extracts on a Western blot; also called synaptophysin in rat HSCs; rHSCs
As to the kind of experiment: Western blot of cell extracts (5 µg/lane) probed with C1-3 scAb. (A western blot detects proteins with antibodies after separation by electrophoresis.)

The target of test [2] is T2, target peptide-BSA conjugate (…-BSA) (human; bovine, UniProt P02769 25-607, chemically conjugated to bovine serum albumin (BSA) using 3 maleimidoacetic acid N-hydroxysuccinimide (MBS)).
T2 construct: Typically on average ~4 peptide molecules per molecule of albumin; also called BSA-target peptide; BSA-peptide 2
As to the kind of experiment: ELISA on coated peptide-BSA or BSA, detection with HRP anti-human Cκ. For orientation: ELISA stands for enzyme-linked immunosorbent assay.

T1 sequence (P07825 whole entry): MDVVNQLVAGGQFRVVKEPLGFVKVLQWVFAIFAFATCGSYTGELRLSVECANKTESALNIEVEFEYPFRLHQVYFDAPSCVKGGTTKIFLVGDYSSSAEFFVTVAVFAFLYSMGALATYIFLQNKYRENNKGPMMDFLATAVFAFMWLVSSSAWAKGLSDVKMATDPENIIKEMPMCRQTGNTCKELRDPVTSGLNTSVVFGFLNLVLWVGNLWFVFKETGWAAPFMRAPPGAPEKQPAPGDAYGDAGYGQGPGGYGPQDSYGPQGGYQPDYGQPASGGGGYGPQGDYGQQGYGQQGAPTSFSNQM
T2 sequence (P02769 25-607 limits assumed): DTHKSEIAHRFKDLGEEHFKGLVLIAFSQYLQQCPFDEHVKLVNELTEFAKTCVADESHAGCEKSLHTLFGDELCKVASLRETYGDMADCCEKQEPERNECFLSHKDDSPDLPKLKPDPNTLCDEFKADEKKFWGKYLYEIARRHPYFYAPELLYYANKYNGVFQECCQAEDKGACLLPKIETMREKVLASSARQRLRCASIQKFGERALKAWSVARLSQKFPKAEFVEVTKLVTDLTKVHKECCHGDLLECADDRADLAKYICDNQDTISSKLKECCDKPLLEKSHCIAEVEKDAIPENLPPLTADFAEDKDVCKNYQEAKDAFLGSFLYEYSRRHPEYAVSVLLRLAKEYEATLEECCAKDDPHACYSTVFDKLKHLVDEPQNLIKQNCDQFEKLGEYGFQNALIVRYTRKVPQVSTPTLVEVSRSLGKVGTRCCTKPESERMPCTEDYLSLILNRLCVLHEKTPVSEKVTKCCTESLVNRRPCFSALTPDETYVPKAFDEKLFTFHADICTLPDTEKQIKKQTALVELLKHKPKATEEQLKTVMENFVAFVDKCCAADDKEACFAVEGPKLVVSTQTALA

B1: C1-3 scAb (scFv)
scFv: MAEVQLLESGGGLVQPGGSLRLSCAASGFTFSSYAMSWVRQAPGKGLEWVSTIAASGPSTGYADSVKGRFTISRDNSKNTLYLQMNSLRAEDTAVYYCAKTTAKFDYWGQGTLVTVSSGGGGSGGGGSGGGGSTDIQMTQSPSSLSASVGDRVTITCRASQSISSYLNWYQQKPGKAPKLLIYSASRLQSGVPSRFNGSGSGTDFTLTISSLQPEDFATYYCQQLQRKPTTFGQGTKVEIKRGAAAPSVFIFPPSDEQLKSGTASVVCLLNNFYPREAKVQWKVDNALQSGNSQESVTEQDSKDSTYSLSSTLTLSKADYEKHKVYACEVTHQGLSSPVTKSFNRGESHHHHHH
notes: Single-chain antibody fragment: scFv fused to human C kappa and a hexa-histidine tag, expressed from pIMS147 in E. coli XL-1 blue; also called C1-3 scFv; clone pIMS147 C1-3
Consider B1, for which the binding result in test [1] is on record as “no binding”. In addition, the “fold more scAb bound to peptide-BSA than to BSA alone” value in test [2] is about 8 times.
